T1: L1-CR1 (Her054P)
T1 construct: also called 1.0
T1 chain: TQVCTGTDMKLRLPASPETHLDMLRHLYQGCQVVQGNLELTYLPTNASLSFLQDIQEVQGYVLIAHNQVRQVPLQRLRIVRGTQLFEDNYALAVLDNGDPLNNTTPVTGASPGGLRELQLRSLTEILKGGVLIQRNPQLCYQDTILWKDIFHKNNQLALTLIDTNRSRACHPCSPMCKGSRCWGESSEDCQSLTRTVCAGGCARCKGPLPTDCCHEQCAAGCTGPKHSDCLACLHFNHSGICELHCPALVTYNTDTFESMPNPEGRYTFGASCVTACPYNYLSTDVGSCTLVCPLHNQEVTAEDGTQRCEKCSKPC


Assays:
L1-CR1 (Her054P) = biological target: T1, L1-CR1 (Her054P); assay: ELISA, soluble scFv on L1-CR1
Procedure: (§1) Various Her2-Fc proteins (e.g., Her008P, Her017P, Her018P, etc.) or a negative control murine IgG2a protein were coated overnight at 4° C. on 96-well Nunc Maxisorp at a concentration of 1 ug/ml in PBS. Alternatively, pre-blocked streptavidin-coated plates (Greiner) were coated with biotinylated Her2-Fc proteins for 1 hour at room temperature at a concentration of 1 ug/ml in block buffer (3% skim milk/1% BSA/PBS). Plates were washed three times using PBS and blocked for 1 hour at room temperature in 3% skim milk/1% BSA/PBS. Phage or peripreps were prepared as described above and were blocked for 1 hour at room temperature in an equal volume of 6% skim milk/1% BSA/PBS. Blocked plates were washed five times with PBS and 50 μl/well of blocked phage or periprep were transferred to the appropriate plates and incubated for 1 hour at room temperature. […] Plates were incubated for a further hour at room temperature and washed seven times with PBS. Signal was developed using TMB, the reaction stopped with H₂SO₄ and the absorbance read at 450 nm on an Envision plate reader (Perkin Elmer).

Full length HER2 = biological target: T2, Full length HER2 (human, UniProt P04626 23-1255); assay: cell ELISA, phage scFv, SKBR3 cells
T2 construct: Endogenous HER2 on SKBR3, BT474, 22rv1, MDA-MB-175, MDA-MB-453 and MDA-MB-361 cells; also called HER2 on the cell surface; ErbB2

[1] = biological target: T3, Her018P, Her2 ECD with a deletion in the CR2 (Domain IV) region expressed with a mIgG2a Fc tail (human; murine, UniProt P04626 23-599); assay: ELISA, soluble scFv on Her018
T3 construct: Shares the name HER018 with the trastuzumab SMIP; also called 1.8 (Dimer); dimeric HER018; not shown: murine IgG2a Fc tail (C-terminal dimerising carrier) and any junction residues

EQR (Her017P) = biological target: T4, EQR (Her017P); assay: ELISA, soluble scFv on EQR
T4 construct: also called HER2 EQR-Fc; HER2 EQR DIMER
Procedure: as §1

[2] = biological target: T5, Her008P, full-length extracellular domain (ECD) of Her2 expressed with a mIgG2a Fc tail (human; murine, UniProt P04626 23-652); assay: ELISA, soluble scFv on ECD
T5 construct: also called SIIS; SIIS (Dimer); not shown: murine IgG2a Fc tail

ECD region of Her2 [3] = biological target: T6, ECD region of Her2 (human, UniProt P04626 23-652); assay: cell ELISA, phage scFv, CHO-ECD cells
T6 construct: extracellular domain; Generic target of the scFv screen; also called extracellular domain (ECD) of Her2 (ErbB2)
Procedure: 2×10⁴ CHOK1 cells/well were seeded in a 96-well tissue culture plate on Day 1 and incubated at 37° C./5% CO₂ for 2-4 days until a confluent monolayer was observed. Cells were washed five times with PBS (+ Ca/Mg ions) and blocked for 1 hour at room temperature with 3% skim milk/1% BSA/PBS (+ Ca/Mg ions). Phage or peripreps were prepared as described above and were blocked for 1 hour at room temperature in an equal volume of 6% skim milk/1% BSA/PBS (+ Ca/Mg ions). Blocked plates were washed five times with PBS (+ Ca/Mg ions) and 50 μl/well of blocked phage or periprep were transferred to the appropriate plates and incubated for 1 hour at room temperature. […] Plates were incubated for a further hour at room temperature and washed ten times with PBS (+ Ca/Mg ions). Signal was developed using TMB, the reaction stopped with H₂SO₄ and the absorbance read at 450 nm on an ENVISION plate reader (Perkin Elmer).

ECD region of Her2 [4] = biological target: T6, ECD region of Her2; assay: screening after three rounds of phage selection, soluble periplasmic scFv

| Binder | binding result (L1-CR1 (Her054P)) | binding result (Full length HER2) | binding result [1] | binding result (EQR (Her017P)) | binding result [2] | binding result (ECD region of Her2 [3]) | binding result (ECD region of Her2 [4]) |
| --- | --- | --- | --- | --- | --- | --- | --- |
| S1R3C1_CS_1D3 (scFv, V domains shown, scFv, on phage in the screen; also called Her2_S1R3C1_CS_1D3) VH: QVQLQESGPGLVKPSQTLSLTCGISGDSVSSNSAAWNWIRQSPTRGLEWLGRTYYRSSWYHNYAPSMNSRLTIIADTSKNQFSLQLNSVTPEDTAVYYCASGWAFDVWGRGTLVTVSS VL: QSVLTQPPSASGSPGQSVTISCTGTSSDVGAYDFVSWYQQHPGKAPKLMIYEVNKRPSGVPDRFSGSKSGNTASLTVSGLQAEDEADYYCSSYAGSKNLLFGGGTKLTVL | no binding | binds | no binding | binds | binds | binds | – |
| S1R3B1_BMV_1A1 (scFv, V domains shown, scFv, soluble from bacterial periplasm in the screen; also called Her2_S1R3B1_BMV_1A1) VH: EVQLVQSGAEVKEPGASVKVSCKASGYDFSNYGFSWVRQAPGQGLEWMGWISSYNGYTNYAQRLQGRVTMTTDTSTSTAYMELRSLRSDDTAVYYCARDRGLGNWYFDLWGQGTLVTVSS VL: QSVLTQPASVSGSPGQSITISCTGTSSDVGGYNYVSWYQQHPGKAPKLMIYEGSKRPSGVSNRFSGSKSGNTASLTISGLQAEDEADYYCSSYTTRSTRVFGGGTKLTVL | no binding | – | no binding | binds | binds | – | binds |
| S1R3B1_BMV_1G11 (scFv, V domains shown, scFv, soluble from bacterial periplasm in the screen; also called Her2_S1R3B1_BMV_1G11) VH: QVQLVQSGGGLVQPGGSLRLSCAASGFTFSTYAMSWARQAPGKGLEWVSSISGDGGRILDADSAKGRFTISRDNSKNTLYLQMNGLRVEDTALYYCARADGNYWGRGTMVTVSS VL: QSVLTQPASVSGSPGQSITISCTGTSSDVGGYNYVSWYQQHPGKAPKLMIYEGSKRPSGVSNRFSGSKSGNTASLTISGLQAEDEADYYCSSYTTRSTRVFGGGTKLTVL | no binding | – | no binding | no binding | binds | – | binds |
| S1R3B2_BMV_1G2 (scFv, V domains shown, scFv, on phage in the screen; also called Her2_S1R3B2_BMV_1G2) VH: QVQLVQSGAEVKKPGSSVKVSCKASGYTFTSYGISWVRQAPGQGLEWMGWISAYNGNTNYAQKLQGRVTMTTDTSTSTAYMELRSLRSDDTAVYYCARVPGVSGSYPDYYYMDVWGKGTLVTVSS VL: DIQMTQSPSTLSASIGDRVTITCRASEGIYHWLAWYQQKPGKAPKLLIYKASSLASGAPSRFSGSGSGTDFTLTISSLQPDDFATYYCQQYSNYPLTFGGGTKLEIK | no binding | binds | binds | binds | binds | binds | – |
| S1R3A1_BMV_1F3 (scFv, V domains shown, scFv, soluble from bacterial periplasm in the screen; also called Her2_S1R3A1_BMV_1F3) VH: EVQLVESGEGLVKPGGSLRLSCTASGFTFRSYSLNWVRQAPGQGLEWVSSISSTSTYIYYADSVKGRFTISRDDAKNTLYLQMNSLRAEDTAAYYCVRLGSGGGYFPDYWGRGTLVTVSS VL: SSELTQDPAVSVALGQTVRITCQGDSLRSYYASWYQQKPGQAPVLVIYGKNNRPSGIPDRFSGSSSGNTASLTITGAQAEDEADYYCNSRDSSGNHVVFGGGTKLTVL | no binding | – | binds | binds | binds | – | binds |
| S1R3B1_BMV_1H5 (scFv, V domains shown, scFv, soluble from bacterial periplasm in the screen; also called Her2_S1R3B1_BMV_1H5) VH: QVQLQESGGGVVQPGGSLRLSCAASGFTFSGYGMHWVRQAPGKGLEWVASVRNDGSNTYYTDSVKDRFTISRDNTKNTLYLQMNSLRAEDTAVYYCAKSRRVMYGTSYYFDYWGRGTLVTVSS VL: SSELTQDPAVSVALGQTVRITCQGDSLRSYYASWYQQKPGQAPVLVIYGKNNRPSGIPDRFSGSSSGNTASLTITGAQAEDEADYYCNSRDSSGNHVVFGGGTKLTVL | no binding | – | no binding | no binding | binds | – | binds |
| S1R3B1_BMV_1H9 (scFv, V domains shown, scFv, soluble from bacterial periplasm in the screen; also called Her2_S1R3B1_BMV_1H9) VH: QVQLQESGAGLVKPSGTLSLTCAVSGGSISSGNWWSWVRQPPGKGLEWIGEISHSGSTNYNPSLKSRVTISVDKSKNQFSLNLSSVTAADTAVYYCARVRGTVGDTRGPDYWGQGTLVTVSS VL: SSELTQDPAVSVALGQTVRITCQGDSLRSYYASWYQQKPGQAPVLVIYGKNNRPSGIPDRFSGSSSGNTASLTITGAQAEDEADYYCNSRDSSGNHVVFGGGTKLTVL | no binding | – | no binding | no binding | binds | – | binds |
| S1R3A1_DP47_1A6 (scFv, V domains shown, scFv, soluble from bacterial periplasm in the screen; also called Her2_S1R3A1_DP47_1A6) VH: not shown VL: HVILTQPPSASGTPGQRVTISCSGSSSNIGSNSVSWYQQLPGTAPKLLMYTNNQRPSGVPDRFSGSKSGTSASLAISGLQSEDEADYYCATWDASLNTWVFGGGTKVTVL | no binding | – | binds | binds | binds | – | binds |

Reference: patent publication US20090258005A1 (TRUBION PHARMACEUTICALS, published 2009)
